B1: Protein patched homolog 1 (Homo sapiens), Q13635-1 (parent)
chain: MASAGNAAEPQDRGGGGSGCIGAPGRPAGGGRRRRTGGLRRAAAPDRDYLHRPSYCDAAFALEQISKGKATGRKAPLWLRAKFQRLLFKLGCYIQKNCGKFLVVGLLIFGAFAVGLKAANLETNVEELWVEVGGRVSRELNYTRQKIGEEAMFNPQLMIQTPKEEGANVLTTEALLQHLDSALQASRVHVYMYNRQWKLEHLCYKSGELITETGYMDQIIEYLYPCLIITPLDCFWEGAKLQSGTAYLLGKPPLRWTNFDPLEFLEELKKINYQVDSWEEMLNKAEVGHGYMDRPCLNPADPDCPATAPNKNSTKPLDMALVLNGGCHGLSRKYMHWQEELIVGGTVKNSTGKLVSAHALQTMFQLMTPKQMYEHFKGYEYVSHINWNEDKAAAILEAWQRTYVEVVHQSVAQNSTQKVLSFTTTTLDDILKSFSDVSVIRVASGYLLMLAYACLTMLRWDCSKSQGAVGLAGVLLVALSVAAGLGLCSLIGISFNAATTQVLPFLALGVGVDDVFLLAHAFSETGQNKRIPFEDRTGECLKRTGASVALTSISNVTAFFMAALIPIPALRAFSLQAAVVVVFNFAMVLLIFPAILSMDLYRREDRRLDIFCCFTSPCVSRVIQVEPQAYTDTHDNTRYSPPPPYSSHSFAHETQITMQSTVQLRTEYDPHTHVYYTTAEPRSEISVQPVTVTQDTLSCQSPESTSSTRDLLSQFSDSSLHCLEPPCTKWTLSSFAEKHYAPFLLKPKAKVVVIFLFLGLLGVSLYGTTRVRDGLDLTDIVPRETREYDFIAAQFKYFSFYNMYIVTQKADYPNIQHLLYDLHRSFSNVKYVMLEENKQLPKMWLHYFRDWLQGLQDAFDSDWETGKIMPNNYKNGSDDGVLAYKLLVQTGSRDKPIDISQLTKQRLVDADGIINPSAFYIYLTAWVSNDPVAYAASQANIRPHRPEWVHDKADYMPETRLRIPAAEPIEYAQFPFYLNGLRDTSDFVEAIEKVRTICSNYTSLGLSSYPNGYPFLFWEQYIGLRHWLLLFISVVLACTFLVCAVFLLNPWTAGIIVMVLALMTVELFGMMGLIGIKLSAVPVVILIASVGIGVEFTVHVALAFLTAIGDKNRRAVLALEHMFAPVLDGAVSTLLGVLMLAGSEFDFIVRYFFAVLAILTILGVLNGLVLLPVLLSFFGPYPEVSPANGLNRLPTPSPEPPPSVVRFAMPPGHTHSGSDSSDSEYSSQTTVSGLSEELRHYEAQQGAGGPAHQVIVEATENPVFAHSTVVHPESRHHPPSNPRQQPHLDSGSLPPGRQGQQPRRDPPREGLWPPPYRPRRDAFEISTEGHSGPSNRARWGPRGARSHNPRNPASTAMGSSVPGYCQPITTVTASASVTVAVHPPPVPGPGRNPRGGLCPGYPETDHGLFEDPHVPFHVRCERRDSKVEVIELQDVECEERPRGSSSN

Variants of: B1
Conditions: with shh_human SHH

| effect of a mutation on the interaction | Variant |
| --- | --- |
| disrupting interaction | D513Y |
| disrupting interaction | T500F;P504L |
| disrupting interaction | L282Q;T500F;P504L |
| disrupting interaction | L282Q |
| disrupting interaction | G509V |

From IntAct's records for PubMed 29954986
